# Data as given in paper PMC3868510.
# Columns and labels:
# [1] = target: soluble truncated αvβ6 integrin conjugated to alkaline phosphatase (UniProt P06756); experiment: SPR; Biacore 2000, CM-5 chip; MAb LS-C44264 to placental alkaline phosphatase immobilised by amine coupling and used to capture the soluble integrin-AP; gH/gL injected at 50 µl/min; 25°C; 10 mM HEPES-NaOH pH 7.4, 150 mM NaCl, 0.005% P20; kobs against gH/gL concentration, 1:1 Langmuir
# [2] = target: soluble truncated αvβ8 integrin conjugated to alkaline phosphatase (UniProt P06756); experiment: as above
# soluble truncated αvβ8 integrin conjugated to alkaline phosphatase, sequence (P06756 31-1048, chain 1 of 2): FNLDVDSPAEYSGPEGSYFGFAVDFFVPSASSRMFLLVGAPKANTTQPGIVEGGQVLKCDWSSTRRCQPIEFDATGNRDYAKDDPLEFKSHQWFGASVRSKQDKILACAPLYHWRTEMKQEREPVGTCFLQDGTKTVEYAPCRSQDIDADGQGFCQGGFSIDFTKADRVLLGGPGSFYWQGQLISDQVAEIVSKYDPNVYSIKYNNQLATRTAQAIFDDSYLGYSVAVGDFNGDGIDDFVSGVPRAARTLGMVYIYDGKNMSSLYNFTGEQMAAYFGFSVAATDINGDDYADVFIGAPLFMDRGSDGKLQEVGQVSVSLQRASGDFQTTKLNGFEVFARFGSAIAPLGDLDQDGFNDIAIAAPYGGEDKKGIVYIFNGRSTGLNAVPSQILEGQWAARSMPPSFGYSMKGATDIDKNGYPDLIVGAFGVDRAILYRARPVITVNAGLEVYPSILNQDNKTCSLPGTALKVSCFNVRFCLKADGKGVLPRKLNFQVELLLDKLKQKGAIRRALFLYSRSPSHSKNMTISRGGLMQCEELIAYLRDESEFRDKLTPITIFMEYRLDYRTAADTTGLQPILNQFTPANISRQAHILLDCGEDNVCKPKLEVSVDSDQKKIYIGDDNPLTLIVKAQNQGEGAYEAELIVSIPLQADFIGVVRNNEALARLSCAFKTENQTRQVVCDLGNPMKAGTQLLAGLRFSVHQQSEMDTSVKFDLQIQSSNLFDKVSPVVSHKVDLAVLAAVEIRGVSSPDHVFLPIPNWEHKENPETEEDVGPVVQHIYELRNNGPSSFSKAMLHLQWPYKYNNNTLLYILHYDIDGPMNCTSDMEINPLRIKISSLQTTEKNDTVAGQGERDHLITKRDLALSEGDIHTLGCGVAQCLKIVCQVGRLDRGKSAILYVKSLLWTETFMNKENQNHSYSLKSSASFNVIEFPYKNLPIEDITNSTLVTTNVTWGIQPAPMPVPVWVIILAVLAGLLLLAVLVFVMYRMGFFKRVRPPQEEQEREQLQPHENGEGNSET
# soluble truncated αvβ8 integrin conjugated to alkaline phosphatase, sequence (P26012 43-684, chain 2 of 2, further chain): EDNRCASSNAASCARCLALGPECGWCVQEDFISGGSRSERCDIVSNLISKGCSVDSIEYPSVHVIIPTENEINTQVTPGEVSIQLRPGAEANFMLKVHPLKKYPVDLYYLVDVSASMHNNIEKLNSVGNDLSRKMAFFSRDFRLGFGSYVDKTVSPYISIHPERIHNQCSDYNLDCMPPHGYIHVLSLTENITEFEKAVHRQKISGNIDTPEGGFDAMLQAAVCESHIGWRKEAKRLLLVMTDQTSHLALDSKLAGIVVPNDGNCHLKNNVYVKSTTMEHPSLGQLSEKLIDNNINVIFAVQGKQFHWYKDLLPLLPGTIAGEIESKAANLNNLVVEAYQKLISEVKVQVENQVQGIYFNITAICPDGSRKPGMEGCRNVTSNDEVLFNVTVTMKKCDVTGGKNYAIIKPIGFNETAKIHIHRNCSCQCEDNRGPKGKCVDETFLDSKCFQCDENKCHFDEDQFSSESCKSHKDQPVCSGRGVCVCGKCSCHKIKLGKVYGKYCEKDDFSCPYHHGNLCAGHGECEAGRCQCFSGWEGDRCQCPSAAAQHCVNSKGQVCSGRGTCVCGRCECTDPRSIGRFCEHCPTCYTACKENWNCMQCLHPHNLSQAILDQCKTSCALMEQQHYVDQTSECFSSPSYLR
# soluble truncated αvβ6 integrin conjugated to alkaline phosphatase, sequence (P06756 31-1048, chain 1 of 2): as the sequence (P06756 31-1048, chain 1 of 2) above
# soluble truncated αvβ6 integrin conjugated to alkaline phosphatase, sequence (P18564 22-709, chain 2 of 2, further chain): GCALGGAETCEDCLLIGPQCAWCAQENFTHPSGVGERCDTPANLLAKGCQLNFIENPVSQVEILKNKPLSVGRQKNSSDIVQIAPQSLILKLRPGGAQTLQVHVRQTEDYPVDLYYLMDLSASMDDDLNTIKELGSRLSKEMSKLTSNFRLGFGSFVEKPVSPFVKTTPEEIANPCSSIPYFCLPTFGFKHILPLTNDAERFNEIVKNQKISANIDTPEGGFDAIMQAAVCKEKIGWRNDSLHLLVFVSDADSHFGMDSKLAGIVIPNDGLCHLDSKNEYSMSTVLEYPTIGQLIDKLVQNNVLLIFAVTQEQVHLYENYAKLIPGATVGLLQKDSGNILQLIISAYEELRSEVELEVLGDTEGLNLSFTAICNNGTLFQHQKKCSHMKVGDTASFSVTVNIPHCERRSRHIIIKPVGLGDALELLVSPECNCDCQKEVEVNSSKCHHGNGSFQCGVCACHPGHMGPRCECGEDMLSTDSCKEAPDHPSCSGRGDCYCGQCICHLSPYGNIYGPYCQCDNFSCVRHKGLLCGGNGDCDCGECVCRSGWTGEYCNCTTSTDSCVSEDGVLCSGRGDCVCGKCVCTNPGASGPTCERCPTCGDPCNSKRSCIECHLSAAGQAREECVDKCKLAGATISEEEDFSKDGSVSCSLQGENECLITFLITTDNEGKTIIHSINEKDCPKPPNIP
substance,measurement,setting,value
soluble form of HSV gH/gL (gHt/gL) (from UniProt P06477 19-838; P10185 20-224) (complex),Kd,[1],12 nM
same,koff,[1],0.0018 s⁻¹
same,kon,[1],152000 M⁻¹ s⁻¹
same,Kd,[2],27 nM
same,koff,[2],0.005 s⁻¹
same,kon,[2],207000 M⁻¹ s⁻¹
